58 variants from publication PMC10958042 can be followed below.

B1: ATGL (PNPLA2, patatin-like phospholipase domain-containing protein 2), human, full length / perilipin-5, mouse (mPlin5) (parent)
chain 1: MFPREKTWNISFAGCGFLGVYYVGVASCLREHAPFLVANATHIYGASAGALTATALVTGVCLGEAGAKFIEVSKEARKRFLGPLHPSFNLVKIIRSFLLKVLPADSHEHASGRLGISLTRVSDGENVIISHFNSKDELIQANVCSGFIPVYCGLIPPSLQGVRYVDGGISDNLPLYELKNTITVSPFSGESDICPQDSSTNIHELRVTNTSIQFNLRNLYRLSKALFPPEPLVLREMCKQGYRDGLRFLQRNGLLNRPNPLLALPPARPHGPEDKDQAVESAQAEDYSQLPGEDHILEHLPARLNEALLEACVEPTDLLTTLSNMLPVRLATAMMVPYTLPLESALSFTIRLLEWLPDVPEDIRWMKEQTGSICQYLVMRAKRKLGRHLPSRLPEQVELRRVQSLPSVPLSCAAYREALPGWMRNNLSLGDALAKWEECQRQLLLGLFCTNVAFPPEALRMRAPADPAPAPADPASPQHQLAGPAPLLSTPAPEARPVIGALGL
chain 2: MDQRGEDTTLAPHSRMSGDQTAQDPGSSLGELDQQNVVNRVVALPLVKATCTAVSSAYNSAKDRHPLLGSACRLAEHCVCSVTTCALDHAQPLLEHLQPQLATVNDLACRGLDKLEEKLPFLQQPSDMVVTSAKDTVAKSVTGMVDLAQRGRRWSGELRRSMSQAMDMVLGKSEKLVDRFLPMTEAELAVLAAEAEGPEVGTVEEQRQQQGYFVRLGSLSARLRHLAYEHSLGKLRQSKHRTQEMLAQLQETLELIQHMQRGASPSPTFHPPKTQELWGSWSPCLENGRSHSEVELETLALSRSLTLELQNAVDALAGCVRGLPPSAQAKVAEVQRSVDALQATFADAHCLGDVAPTALAEGRGSVARAHACVDEFLDLVLRAMPLPWLVGPFAPILVEQSEPLINLATCVDEVVGDPDPRWAHMDWPAQKRAWEAESADPGGQEAEPPRGQGKHTMMPELDF
B2: ATGL (PNPLA2, patatin-like phospholipase domain-containing protein 2), human, full length / perilipin-1, mouse (mPlin1) (parent)
chain 1: B1 chain 1
chain 2: MSMNKGPTLLDGDLPEQENVLQRVLQLPVVSGTCECFQKTYNSTKEAHPLVASVCNAYEKGVQGASNLAAWSMEPVVRRLSTQFTAANELACRGLDHLEEKIPALQYPPEKIASELKGTISTRLRSARNSISVPIASTSDKVLGATLAGCELALGMAKETAEYAANTRVGRLASGGADLALGSIEKVVEFLLPPDKESAPSSGRQRTQKAPKAKPSLVRRVSTLANTLSRHTMQTTAWALKQGHSLAMWIPGVAPLSSLAQWGASAAMQVVSRRQSEVRVPWLHNLAASQDESHDDQTDTEGEETDDEEEEEESEAEENVLREVTALPNPRGLLGGVVHTVQNTLRNTISAVTWAPAAVLGTVGRILHLTPAQAVSSTKGRAMSLSDALKGVTDNVVDTVVHYVPLPRLSLMEPESEFRDIDNPSAEAERKGSGARPASPESTPRPGQPRGSLRSVRGLSAPSCPGLDDKTEASARPGFLAMPREKPARRVSDSFFRPSVMEPILGRAQYSQLRKKS

Variants of B1 are the subject of the first assay. The assay is described as follows: LUMIER: Protein A-ATGL variant and firefly luciferase-partner co-expressed in HEK293T, lysates immunoprecipitated on IgG-coated plates, co-precipitated partner measured as luciferase luminescence. The settings on record: with perilipin-5, mouse (mPlin5), transient co-transfection, IgG-coated LUMITRAC plates, 2 h at 4 °C, three PBS washes, Bright-Glo luciferase reagent, triplicates per assay, two …, parent: 0.15, not graded, scale: log2 fold change of co-immunoprecipitated luminescence relative to wild-type ATGL within each experiment.
In the case of chain 1 A434L, the screen value worked out at 0.18.
chain 1 S158A: the screen value is -0.0252.
As for chain 1 S158E, the screen value is -0.0461.
As for chain 1 E368A, the screen value was -0.0206.
For chain 1 H109E, the screen value was found to be 0.319.
For the variant chain 1 P156K, the screen value was -0.669.
On the same count and under the same terms, under chain 1 G153A stands -0.676.
For the variant chain 1 G153K, the screen value was -1.05.
The same measure, in the same setting: under chain 1 S87A stands -0.249; under chain 1 S87E, -0.403; under chain 1 P86K, -1.17.
chain 1 V328A: the screen value was -0.912.

The assay is the same for the next values; noted with them: with perilipin-5, mouse (mPlin5), transient co-transfection, IgG-coated LUMITRAC plates, 2 h at 4 °C, three PBS washes, Bright-Glo luciferase reagent, triplicates per assay, two …, parent: 0.46, not graded, scale: log2 fold change of co-immunoprecipitated luminescence relative to wild-type ATGL within each experiment.
Consider chain 1 A434L, for which the screen value worked out at 0.786.
Take chain 1 S158A: the screen value is 0.0162.
On to chain 1 S158E, for which the screen value turned out to be 0.172.
For chain 1 E368A, the screen value was -0.0325.
On the same count and under the same terms, as for chain 1 H109E, the figure is -0.248.
As to chain 1 P156K, the screen value is -1.08.
As to chain 1 G153A, the screen value is -0.506.
Consider chain 1 G153K, for which the screen value is -0.867.
chain 1 S87A: the screen value is -0.228.
Same read-out and setting: under chain 1 S87E stands -0.318; under chain 1 P86K, -1.16; under chain 1 V328A, -0.985.

Another assay covers variants of B2. The assay is described as above. The settings on record: with perilipin-1, mouse (mPlin1), transient co-transfection, IgG-coated LUMITRAC plates, 2 h at 4 °C, three PBS washes, Bright-Glo luciferase reagent, triplicates per assay, two …, parent: 0.26, not graded, scale: log2 fold change of co-immunoprecipitated luminescence relative to wild-type ATGL within each experiment.
In the case of chain 1 N180L, the screen value was determined as 0.0119.
For the variant chain 1 G189E, the screen value is -1.
The same measure, in the same setting: as for chain 1 F35E, the figure is -0.17.
Turning to chain 1 F35A, the screen value was -0.185.
As for chain 1 Q140A, the screen value was -0.00146.
As to chain 1 Q140K, the screen value was -0.355.
Still for that read-out and setting: as for chain 1 F348E, the figure is 0.112; as for chain 1 L159A, -0.915.
Turning to chain 1 V127L, the screen value was -0.304.
On the same count and under the same terms, under chain 1 H109E stands -0.442; under chain 1 G153K, -0.674.
As to chain 1 G153A, the screen value was -0.209.
Same read-out and setting: as for chain 1 S106K, the figure is -0.529; as for chain 1 G59L, -0.00134.
The same measure, in the same setting: under chain 1 S158A stands -0.232; under chain 1 S158E, -0.452.
Turning to chain 1 A453E, the screen value was found to be 0.218.
As for chain 1 R351L, the screen value is -0.000717.
On the same count and under the same terms, under chain 1 P103K stands -1.36; under chain 1 K92L, 0.107; under chain 1 Q396A, 0.313.
The same measure, in the same setting: under chain 1 T41A stands -0.0364; under chain 1 K275A, -0.55; under chain 1 L62A, 0.475.
The same measure, in the same setting: as for chain 1 L62K, the figure is 0.457; as for chain 1 E314A, -0.247.
As to chain 1 R329E, the screen value is -0.367.
Take chain 1 G66A: the screen value was -0.406.
Same read-out and setting: under chain 1 G66L stands -0.803; under chain 1 P156K, -0.552.
For the variant chain 1 L178A, the screen value was -0.664.
As to chain 1 R95K, the screen value is -0.788.
The same measure, in the same setting: as for chain 1 R95L, the figure is 0.0463; as for chain 1 R163K, -0.504; as for chain 1 L261E, -0.624.
Same read-out and setting: as for chain 1 V328A, the figure is -0.205.
Still for that read-out and setting: as for chain 1 E368A, the figure is -0.0883; as for chain 1 Y415A, -0.0219.
Regarding chain 1 G16K, the screen value was determined as 0.265.
Still for that read-out and setting: as for chain 1 N39E, the figure is -0.0832; as for chain 1 A434L, 0.0211.
chain 1 P258L: the screen value is -0.67.
Still for that read-out and setting: under chain 1 I70A stands -0.501.
Same read-out and setting: under chain 1 I70K stands -0.495; under chain 1 R113L, 0.128.
Still for that read-out and setting: under chain 1 R113K stands -0.0594.

Still in this assay, the particulars now being: with perilipin-1, mouse (mPlin1), transient co-transfection, IgG-coated LUMITRAC plates, 2 h at 4 °C, three PBS washes, Bright-Glo luciferase reagent, triplicates per assay, two …, parent: -0.37, not graded, scale: log2 fold change of co-immunoprecipitated luminescence relative to wild-type ATGL within each experiment.
In the case of chain 1 N180L, the screen value is -0.626.
Take chain 1 G189E: the screen value is -1.43.
Still for that read-out and setting: under chain 1 F35E stands -0.197; under chain 1 F35A, -0.158; under chain 1 Q140A, -0.191.
As to chain 1 Q140K, the screen value came to 0.00731.
Turning to chain 1 F348E, the screen value is -0.626.
With chain 1 L159A, the screen value is 0.395.
Same read-out and setting: under chain 1 V127L stands -0.288; under chain 1 H109E, -0.386.
Still for that read-out and setting: as for chain 1 G153K, the figure is -0.772.
As to chain 1 G153A, the screen value is -0.215.
As to chain 1 S106K, the screen value was -0.667.
In the case of chain 1 G59L, the screen value is -0.613.
The same measure, in the same setting: as for chain 1 S158A, the figure is 0.188; as for chain 1 S158E, -0.376.
On the same count and under the same terms, under chain 1 A453E stands 0.0778; under chain 1 R351L, -0.298.
Still for that read-out and setting: as for chain 1 P103K, the figure is -0.898; as for chain 1 K92L, 0.166.
With chain 1 Q396A, the screen value was -0.0639.
Same read-out and setting: under chain 1 T41A stands -0.45; under chain 1 K275A, -0.709.
Same read-out and setting: under chain 1 L62A stands -0.248; under chain 1 L62K, 0.284; under chain 1 E314A, 0.211.
Still for that read-out and setting: as for chain 1 R329E, the figure is -0.537; as for chain 1 G66A, 0.198; as for chain 1 G66L, -0.433.
chain 1 P156K: the screen value was -0.726.
Still for that read-out and setting: as for chain 1 R95K, the figure is -0.635; as for chain 1 R95L, 0.332; as for chain 1 R163K, -0.582.
Regarding chain 1 L261E, the screen value was -1.14.
The same measure, in the same setting: as for chain 1 V328A, the figure is -0.0406.
The same measure, in the same setting: as for chain 1 E368A, the figure is -0.602; as for chain 1 Y415A, -0.00379; as for chain 1 G16K, 0.718.
On to chain 1 N39E, for which the screen value was -0.558.
For the variant chain 1 A434L, the screen value is 0.452.
Turning to chain 1 P258L, the screen value is -1.35.
Turning to chain 1 I70A, the screen value was -0.781.
As for chain 1 I70K, the screen value is -0.759.
Take chain 1 R113L: the screen value turned out to be 0.163.
Same read-out and setting: under chain 1 R113K stands 0.272.

Still in this assay, the particulars now being: with perilipin-1, mouse (mPlin1), transient co-transfection, IgG-coated LUMITRAC plates, 2 h at 4 °C, three PBS washes, Bright-Glo luciferase reagent, triplicates per assay, two …, parent: -0.37, not graded, value at the no-binding floor (a bound), scale: log2 fold change of co-immunoprecipitated luminescence relative to wild-type ATGL within each experiment.
As for chain 1 L178A, the screen value was -1.6.
